Results published in PMC2653429.

B1: 4Cm (dsDNA)
DNA 1: GATCTTGCCAAGCTCCACGATC
DNA 2: GATCGTGGAGCTTGGCAAGATC
B2: 3Cm (dsDNA)
DNA 1: GATCCCTGGCACCCTTCCTGATC
DNA 2: GATCAGGAAGGGTGCCAGGGATC
B3: (1+2)m (dsDNA)
DNA 1: GATCTTAGGTAGCCCCCGGGACTGGCACAGGCACCTTGATC
DNA 2: GATCAAGGTGCCTGTGCCAGTCCCGGGGGCTACCTAAGATC

Molecular target: GST-Dpn bHLH (UniProt Q26263 1-108)
Assay: EMSA

GST-Dpn bHLH, sequence (Q26263 1-108): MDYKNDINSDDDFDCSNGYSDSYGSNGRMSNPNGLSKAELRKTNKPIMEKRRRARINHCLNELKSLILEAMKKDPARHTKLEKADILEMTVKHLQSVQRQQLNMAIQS

Binder	binding result
B1	no binding
B2	no binding
B3	no binding
